Assays:
[1] = PK2 administration in GTT, wild type mice; assay type: in vivo; details: 10 nmol/kg and 200 nmol/kg, wild type mice (FIG. 8)
Description: The compound (3R)-1-Benzyl-N-(9-chloro-3,4-dihydro-2H-1,5-benzodioxepin-7-ylmethyl)-N-isobutyl pyrrolidine-3-carboxamide (3Cl-R-PLP) was dissolved in PEG-400 and then resuspended in water with 8% final concentration of PEG-400.8% PEG-400 in water without drug was used as vehicle. Mice were fed with regular chow. Drug or vehicle was gavaged to mice that were fasted overnight. Two hours later, glucose (2 g/kg of body weight) was injected i.p. and whole venous blood obtained from the tail vein at 0, 15, 30, 90 and 120 min after the injection was measured for glucose by using an automatic glucometer (one Touch, Lifescan, Daly, Calif.).
The inventors next tested the effect of PK2 administration on the performance of GTT test in wild type mice. […] This is consistent with observations that PK2-deficient mice have enhanced glucose clearance abilities.

MIN6 cells [2] = experiment: Cytosolic calcium mobilization in MIN6 cells; assay type: cell-based
Excerpt: (§1) To investigate the direct effects of PK2 on the insulin secretion, the inventors performed a glucose-stimulated insulin secretion on β-cell like MIN6 cells. […] To specifically test the effects of endogenous PK2, the inventors treated MIN6 cells with 4Ind-3Cl-R-BMA along with low and high concentrations of glucose. […] As PK2 receptors have been reported coupling to Gi or Gq proteins, the inventors examined the possible signaling transduction of PK2 receptor in MIN6 cells.

MIN6 cells [3] = experiment: Glucose-stimulated insulin secretion in MIN6 cells; assay type: cell-based; details: 15 mM glucose, PK2 added (FIG. 12A)
Excerpt: as §1

MIN6 cells [4] = experiment: Forskolin-induced cAMP levels in MIN6 cells; assay type: cell-based; details: PK2 (FIG. 12C)
Excerpt: as §1

[5] = Glucose-induced insulin secretion in vivo after PK2 administration; parameters: species or system mice; details: glucose i.p., 30 min (FIG. 10)
Excerpt: To understand whether insulin is directly involved, the inventors examined whether PK2 and/or its two cognate receptors, PKR1 and PKR2, are expressed in pancreas beta cells. […] The inventors tested whether this glucose-induced insulin secretion was inhibited by PK2. […] Consistent with the inhibitory effect of PK2 on insulin secretion, PK2-deficient mice have increased circulating insulin level. It is likely that at least some of glucose-lowering effects of PK2 antagonists were due to their abilities to increase insulin secretion as depicted in FIG. 11.

B1: PK2: "Mature human prokineticins (PK1 and PK2) contain 86 and 81 amino acids, respectively"; "recombinant PK2" used as agonist (protein, UniProt Q9HC23 28-129, looked up)
Prokineticin-2: AVITGACDKDSQCGGGMCCAVSIWVKSIRICTPMGKLGDSCHPLTRKNNFGNGRQERRKRKRSKRKKEVPFFGRRMHHTCPCLPGLACLRTSFNRFICLAQK
[1]
  rate of glucose clearance in GTT: significantly reduced the rate of glucose clearance
MIN6 cells [2]
  cytosolic calcium mobilization: didn't elicit cytosolic calcium mobilization
MIN6 cells [3]
  insulin secretion induced by glucose: significantly suppressed the insulin secretion
MIN6 cells [4]
  forskolin-induced cAMP levels: significantly inhibited forskolin-induced cAMP levels
[5]
  glucose-induced elevation of circulating insulin: significantly inhibited glucose-induced elevation of insulin in circulation

— patent publication US8722896B2, “Prokineticin receptor antagonists and uses thereof” (The Regents of the University of California, priority 2008, dated 2014)
